Measured values: the supplement of paper PMC12455559
± gives the standard deviation of the averaged measurements.

What was measured:
[1] = melting temperature (DSF); higher = more thermostable
Procedure, shortened: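 On a Bio-Rad CFX96, fluorescence of 45 μL enzyme (0 to 0.3 mg/mL) mixed with 5 μL 5X Sypro Orange in sealed PCR plates was followed from 25 °C through 250 cycles of 0.3 °C, with a 0.3 °C/s ramp. The enzymes had been expressed in E. coli C41(DE3), taken up on nickel beads and released by SUMO protease. Melting temperature, measured by differential scanning fluorimetry, is the value given.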

[2] = purified protein yield per well (BCA); higher = higher soluble expression
Procedure, shortened: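 Candidate enzymes were made in 2 mL autoinduction cultures of E. coli C41(DE3) with 100 µg/mL kanamycin, at 37 °C for 2 h and then 18 °C for 40 h, and purified with Ni-charged magnetic beads and SUMO protease cleavage. The Pierce Rapid Gold BCA kit gave purified protein yield per well. Values lower than 25 ug (0.1 mg/mL) are below the detection threshold.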

[3] = PET hydrolysis, aromatic products released after 48 h (umol product/mg enzyme); higher = more PET depolymerization activity
Procedure, shortened: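 Reactions ran in sealed plates without shaking for 48 h at 40 or 60 °C. Each held 3.5 mg amorphous PET film or crystalline PET powder, 450 μL buffer and 5 μg (50 μL) of tagless, SUMO-cleaved, nickel-purified candidate enzyme. Buffers were 50 mM NaCitrate at pH 4.5 or 5.5, 50 mM NaPhosphate at pH 6.5 or 7.5, and glycine at pH 8.5. The supernatant's aromatic product, read at 260 and 280 nm against buffer blanks, gives PET hydrolysis activity per mg enzyme.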

[4] = substrate: cryPow, 40 °C, pH 4.5
[5] = substrate: cryPow, 40 °C, pH 5.5
[6] = substrate: cryPow, 40 °C, pH 6.5
[7] = substrate: cryPow, 40 °C, pH 7.5
[8] = substrate: cryPow, 60 °C, pH 4.5
[9] = substrate: cryPow, 60 °C, pH 5.5
[10] = substrate: cryPow, 60 °C, pH 6.5
[11] = substrate: cryPow, 60 °C, pH 7.5
[12] = substrate: aFilm, 40 °C, pH 4.5
[13] = substrate: aFilm, 40 °C, pH 5.5
[14] = substrate: aFilm, 40 °C, pH 6.5
[15] = substrate: aFilm, 40 °C, pH 7.5
[16] = substrate: aFilm, 60 °C, pH 4.5
[17] = substrate: aFilm, 60 °C, pH 5.5
[18] = substrate: aFilm, 60 °C, pH 6.5
[19] = substrate: aFilm, 60 °C, pH 7.5

Sequence	melting temperature [1]	purified protein yield per well [2]	PET hydrolysis [3, 4]	PET hydrolysis [3, 5]	PET hydrolysis [3, 6]	PET hydrolysis [3, 7]	PET hydrolysis [3, 8]	PET hydrolysis [3, 9]	PET hydrolysis [3, 10]	PET hydrolysis [3, 11]	PET hydrolysis ([3]; substrate: cryPow, 40 °C, pH 8.5)	PET hydrolysis ([3]; substrate: cryPow, 60 °C, pH 8.5)	PET hydrolysis [3, 12]	PET hydrolysis [3, 13]	PET hydrolysis [3, 14]	PET hydrolysis [3, 15]	PET hydrolysis [3, 16]	PET hydrolysis [3, 17]	PET hydrolysis [3, 18]	PET hydrolysis [3, 19]
ADNPYQRGPDPTPQSISATTGPFATASVTVPRQGNFGGGVIYYPTDTSQGTFGAVAISPGLNGTWPGIAWLGPRLSSQGFVVFGIDTLGLNDSTASRGSQLLAALDYLTQTSSVRTRVDASRLAVAGHSMGGGGAFEAVLRRPTLKASIPNAPFFPGSAANVRVPTLITAMQNDSLVGQNRNAYNGIPAGVEKAYIELAGAGHNQIGQPTTAIARNWIPWLKIFVDNDARYHQFFCPTTNMSGLSQYLNTCPLTSATPPTSSPSAGPTTPGPTGPPPGGACAATYQTVNTWSGGYQGEMTVRAGNSAINGWTVRWTMGGGQISQVWNGTLVTGSGAAAVRNAPYNGALAAGATTTFGFISSGTPSATSLTCATP [ESM064]	63.1 C	164 µg	< 3	11	10	74	–	–	–	–	–	–	–	–	–	–	–	–	–	–
ADNPYQRGPDPTPTSVTAVNGPFANTSVAVPTGYGFNGGRIYYPTDTSQGTFGAIAISPGYTALFSAELAWMGPWLASHGFVVIGIETNSRNDFDTARGTQLLAALDYLTQQSPVRDRVDPNRLAVAGHSMGGGGALSAATRRSSLKAAVGIAPYSPSSNLANDRVPTMIFAGQADTVVTPSYASGLYNSLPATTESVYLEVAGADHGFMVGRSNPVMVRTMLPFVKMFIDNDTRYSQFLCPLMDSSGVVTSRSTCPLLPSDPTTPTPTPTTPDPTPTVPPGSASEIVGTQSGRCIDVPNASRTNGTRVQLYNCNRQTNQAWTYTSNKQLQVYGTMCLDAAGSGNGAAVQIYSCHSGTNQQWNVNSNGTISGVQSGRCLDVWSTSNGAQVQLYDCHGQTNQQFRLAPLG [ESM132]	56.2 C	144 µg	< 3	5	< 3	< 3	< 3	< 3	< 3	< 3	–	–	–	–	–	–	–	–	–	–
ADNPYQRGPDPTQSSVSASRGTFATAQVGVPAGNGFGGGVIYHPTDTSQGTFGAVAIVPGYTATWAAEGAWMGHWLASFGFVVIGIDTNNRNDWDTARGTQLLAALDYLTQRSSVRDRVDPSRTAVMGHSMGGGGAMYAALQRPSLKTAVGLAPFSPSQNLTTTRVPTMLLSGQNDTTTTPASIVNLYNGIPSSVEKAYLELTGAGHGFPTSNNSTMMRNVIPWLKIFVDSDTRYTQFLCPLSDSNGIRTYQNTCPLVPSPVPTTTSTTSSTSTTTTSTTTTTTTSVPVGACSATYRTTNAWSGGYQGEVTVAAGDSAVNGWTVRWTLDSGQTISQVWNGTLSATGSAVSVRNASYNGSLRPGTSTTFGFIAGGAPSTPVLSCTSP [DP072]	58 C	89 µg	–	< 3	8	24	–	< 3	< 3	< 3	32	3	–	–	–	–	–	–	–	–
ADNPYQRGPDPTQSSVTAVNGPFANTSVSVPTGYGFNGGRIYYPTDTSQGTFGAIAISPGYTALFSAELAWMGPWLASHGFVVIGIETNSRNDFDTARGTQLLAALDYLTQQSPVRDRVDPTRLAVAGHSMGGGGALSAAMRRPSLKAVVGIAPYSPSSNLANDRVPTMILSGQADTVVTPSYATGLYNSLPSTTESVYLEVAGADHGFMVGRPNPVMVRTMLPFVKMFVDNDARYSQFLCPLLDSSGVVTYRSTCPLLPTTPTTPTPTTPGPTTPGPTPTVSPSVPPTSAGEIVGTQSGRCIDVPNASRNNGTRVQLYDCNRQTNQTWTYTSGKQLQVYGNMCLDAAGTGNGAAVQIYSCHSQTNQQWNINANGTISNVQSGRCLDAWSTANGAQIQLYDCHGQTNQQFRLVARA [ESM075]	62.2 C	233 µg	12.5 ± 2.1	21 ± 1.4	23 ± 1.4	7	< 3	1.5 ± 2.1	< 3	< 3	–	–	< 3	4	< 3	< 3	< 3	< 3	< 3	< 3
ADNPYQRGPDPTRASVAAENGPFANTSVSAPTGYGFNGGRIYYPTDTSQGTFGAIAISPGYTALFSAELAWMGPWLASHGFVVIGIETNSRNDFDTARGTQLLAALDYLTQQSPVRDRIDPNRLAVSGHSMGGGGALSAAMRRSSLKAVVGITPYSPSSNLANVQVPAMVISGQADTVVTPSYALGLYNSLPASTESAYLEVAGGDHGFMVGRSNPVLIRTMLPFVKMFVDNDARYSQFLCPLLDNSGVVTYRSTCPLLPPPTATPTPTGTPTPTPTPTVSPTTPPNSANRIVGVQSGRCIDVPNASRDNGTRVQLYDCHGQSNQSWTYTASKQLRVYGDMCLDAGGSGNGAGIQIYSCHSQTNQQWNVNSNGTISGVQSGRCLDVWSTSNGAQVQLYDCHGQTNQQFNLVPLT [TEP167]	57.1 C	180 µg	< 3	< 3	< 3	< 3	< 3	< 3	< 3	< 3	–	–	–	–	–	–	–	–	–	–
ADNPYQRGPDPTRASVAAVNGPFANTSVSVPTGYGFNGGRIYYPTDTSQGTFGAIAISPGYTALFSAELAWMGPWLASHGFVVIGIETNSRNDFDTARGTQLLAALDYLTQQSPVRDRVDPNRLAVSGHSMGGGGALSAAIRRSSLKAAVGITPYSPSQNLANDRVPTMVISGQADTVVTPSYALNLYNSLPASTESVYLEVAGGDHGFMVGRSNPVLIRTMLPFLKMFVDNDSRYSQFLCPLLDSSGVVTYRSTCPLLPTDPTTPPTGSPTPTPTTPPPSGSANEIIGTQSGRCVDVPNASRNNGTRVQLYDCNKQTNQSWTYTSNRQLRVYDNMCLDAAGSGNGAAIQIYTCHSGTNQQWNVNSNGTITGVQSGRCLDVWSSNNGAQIQLYDCHGQPNQQFRLAPLA [TEP010]	62.8 C	269 µg	13.5 ± 2.1	24	41 ± 1.4	27 ± 4.2	< 3	6 ± 1.4	5 ± 1.4	2 ± 2.8	–	–	< 3	< 3	< 3	< 3	< 3	< 3	< 3	< 3
ADNPYQRGPDPTRASVAAVNGPFVNTSVSVPTGYGFNGGRIYYPTDTSQGTFGAIAISPGYTALFSAELAWMGPWLASHGFVVIGIETNSRNDFDTARGTQLLAALDYLTQQSPVRDRVDPNRLAVSGHSMGGGGALSAAIRRSSLKAAVGITPYSPSQNLANDRVPTMVISGQADTVVTPSYALGLYNSLPASTESVYLEVAGGDHGFMVGRSNPVLIRTMLPFLKMFVDNDSRYSQFLCPLLDSSGVVTYRSTCPLLPTNPTTPPPTGTPTPTPTSTPTPTPTPTTPPPSGSANE [ESM091]	62.5 C	336 µg	13.5 ± 0.71	28 ± 1.4	10	< 3	< 3	< 3	< 3	< 3	–	–	< 3	< 3	< 3	< 3	< 3	< 3	< 3	< 3
ADNPYQRGPDPTRASVASENGPFANTSVAVPTGYGFNGGRIYYPTDTSQGTFGAIAISPGYTALFSVELAWMGPWLASHGFVVIGIETNSRNDFDTARGTQLLAALDYLTQQSPVRDRVDSSRLAVAGHSMGGGGALSAAMRRSSLKAAVGIAPYSPSSNLATDRVPTMVFSGQADTVVTPSYATGLYNSLPSTTESAYLEVAGADHGFMVGRSNPVLIRTMLPFLKIFIDNDARYSQFLCPLLDTSGVVTYRSTCPLLPTPPTSPTATPTTTPTGPSPTSPPGAASQLVGAQSGRCVDVPNASRANGTRVQLWDCNRQSNQSWTYTSTKQLRVYGDMCLDAAGTGNGAAVQIYGCHGQANQQWNVNSNGTVSNVQSGRCLDVWSTANGAQIQLYDCHGQTNQRFNLTPLA [TEP111]	63.1 C	245 µg	13 ± 1.4	17	15.5 ± 9.2	8.5 ± 12	< 3	5	4.5 ± 0.71	< 3	–	–	< 3	< 3	< 3	< 3	< 3	< 3	< 3	< 3
ADNPYQRGPDPTRNSVAAENGPFANTSVSVPSGNGFNGGRIYYPTDTSQGTFGAIAISPGYTALFSAELAWMGPWLASHGFVVIGIETNSRNDFDTARGTQLLAALDYLTQQSTVRNRVDPNRLAVAGHSMGGGGALSAAMRRPSLKAVAGITPYSPSSNLANDRVPTMIISGQADTVVTPSYALGLYNSIPATTESVYLEVAGGDHGFMVGRSNPVLIRTMLPFLKTFVDNDARYTQFLCPLVDNSGVVTYRNTCPLLPPPTGTPTPTPTTPGPTTPPPTTPPPGSASEIVGTQSGRCVDVPNSSRTNGTRVQLYDCNRQTNQTWTYNTSTKQLRVYGDMCLDAAGTGNSAAVQIYACHSQTNQQWNINTNGTISGVQSGRCLDAWNTTNGAQIQLYDCHGQTNQQFRLAAR [TEP115]	60.4 C	113 µg	4	8	7	3	< 3	< 3	< 3	< 3	–	–	–	–	–	–	–	–	–	–
ADNPYQRGPDPTRSSVAAVNGPFANTSVAVPTGYGFNGGRIYYPTDTSQGTFGAIAISPGYTALFSVELAWMGPWLASHGFVVIGIETNSRNDFDTARGTQLLAALDYLTQQSPVRDRVDPNRLAVSGHSMGGGGALSAAIRRSSLKAVVGIAPYSPSSNLANDRVPTMVFAGQADTVVTPSYATGLYNSLPATTESAYLEVAGADHGFMVGRSNPVLIRTMLPFLKMFVDNDARYSQFLCPLADNSGVVSYRSTCPLLPTTPTTPPPTPSDTPPPTPSGTPTTPPTTGPPGTASLVVGAQSGRCLDVPNASRANGTRVQLWDCNRQANQQWTYTSTRQLRVYGDMCLDAAGSGNGAAVQIYGCHGQPNQQWTVNANGTISGVQSGRCLDVWSTANGAQVQLYDCHGQTNQRFTLTPVA [ESM080]	61.6 C	56.6 µg	9	18	9	4	–	–	–	–	–	–	–	–	–	–	–	–	–	–
